# From patent US20160168247A1 (published 2016)
# Changes are numbered by the printed parent chain.
# T1: HSC-F (cynomolgus monkey, UniProt Q95LI8 22-171; Q95LI7 23-181)
# T1 chain: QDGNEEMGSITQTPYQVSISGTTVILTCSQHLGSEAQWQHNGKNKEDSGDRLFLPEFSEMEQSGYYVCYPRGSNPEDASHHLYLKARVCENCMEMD
# B1: IgG1-CD3-LFLEDA (antibody, V domains shown)
# VH: EVKLLESGGGLVQPKGSLKLSCAASGFTFNTYAMNWVRQAPGKGLEWVARIRSKYNNYATYYADSVKDRFTISRDDSQSILYLQMNNLKTEDTAMYYCVRHGNFGNSYVSWFAYWGQGTLVTVSA
# VL: QAVVTQESALTTSPGETVTLTCRSSTGAVTTSNYANWVQEKPDHLFTGLIGGTNKRAPGVPARFSGSLIGDKAALTITGAQTEDEAIYFCALWYSNLWVFGGGTKLTVL
# B2: bsIgG1 CD3xHER2-LFLEDA (bispecific antibody, V domains shown)
# VH 1: B1 VH
# VL 1: B1 VL
# VH 2: QVQLVQSGAEVKKPGASVKVSCKASGYTFTNYGISWVRQAPGQGLEWMGWLSAYSGNTIYAQKLQGRVTMTTDTSTTTAYMELRSLRSDDTAVYYCARDRIVVRPDYFDYWGQGTLVTVSS
# VL 2: EIVLTQSPATLSLSPGERATLSCRASQSVSSYLAWYQQKPGQAPRLLIYDASNRATGIPARFSGSGSGTDFTLTISSLEPEDFAVYYCQQRSNWPRTFGQGTKVEIK
# B3: bsIgG1 huCD3-H3L1xHER2-LFLEDA (bispecific antibody, V domains shown)
# VH 1: B1 VH with L5V, Q13K, K15G, G16R, K19R, Q78K, N87S, A125S
# VL 1: not shown
# VH 2: B2 VH 2
# VL 2: B2 VL 2
# B4: IgG1-huCD3-H3L1-LFLEDA (antibody, V domains shown)
# VH: B1 VH with L5V, Q13K, K15G, G16R, K19R, Q78K, N87S, A125S
# VL: not shown
# B5: bsIgG1 huCD3-H3L1×HER2-LFLEDA (bispecific antibody, V domains shown)
# VH 1: B1 VH with L5V, Q13K, K15G, G16R, K19R, Q78K, N87S, A125S
# VL 1: not shown
# VH 2: B2 VH 2
# VL 2: B2 VL 2
# B6: IgG1-CD3-LFLEDA (parental chimeric CD3 antibody with non-activating LFLEDA mutations) (antibody, V domains shown)
# VH: B1 VH
# VL: B1 VL
# B7: bsIgG1-huCD3-H4L1×HER2-LFLEDA (bispecific antibody, V domains shown)
# VH 1: B1 VH with L5V, Q13K, K15G, G16R, K19R, Q78K, N87S, L120M, A125S
# VL 1: not shown
# VH 2: B2 VH 2
# VL 2: B2 VL 2
# B8: bsIgG1-huCD3-H1L3×HER2-LFLEDA (bispecific antibody, V domains shown)
# VH 1: B1 VH with L5V, K15G, K19R, Q78K, I80S, A125S
# VL 1: QAVVTQEPSFSVSPGGTVTLTCRSSTGAVTTSNYANWVQQTPGQAFRGLIGGTNKRAPGVPARFSGSILGNKAALTITGAQADDESDYYCALWYSNLWVFGGGTKLTVL
# VH 2: B2 VH 2
# VL 2: B2 VL 2
# B9: bsIgG1-huCD3-H4L3×HER2-LFLEDA (bispecific antibody, V domains shown)
# VH 1: B1 VH with L5V, Q13K, K15G, G16R, K19R, Q78K, N87S, L120M, A125S
# VL 1: B8 VL 1
# VH 2: B2 VH 2
# VL 2: B2 VL 2
# B10: bsIgG1-huCD3-H3L3×HER2-LFLEDA (bispecific antibody, V domains shown)
# VH 1: B1 VH with L5V, Q13K, K15G, G16R, K19R, Q78K, N87S, A125S
# VL 1: B8 VL 1
# VH 2: B2 VH 2
# VL 2: B2 VL 2
# B11: IgG1-huCD3-H3L3 (antibody, V domains shown)
# VH: B1 VH with L5V, Q13K, K15G, G16R, K19R, Q78K, N87S, A125S
# VL: B8 VL 1
# B12: IgG1-huCD3-H4L1 (antibody, V domains shown)
# VH: B1 VH with L5V, Q13K, K15G, G16R, K19R, Q78K, N87S, L120M, A125S
# VL: not shown
# B13: IgG1-huCD3-H1L3 (antibody, V domains shown)
# VH: B1 VH with L5V, K15G, K19R, Q78K, I80S, A125S
# VL: B8 VL 1
# B14: IgG1-huCD3-H1L2 (antibody, V domains shown)
# VH: B1 VH with L5V, K15G, K19R, Q78K, I80S, A125S
# VL: B8 VL 1 with D87I, Y89F
# B15: bsIgG1 CD3×HER2 (bispecific antibody, V domains shown)
# VH 1: B1 VH
# VL 1: B1 VL
# VH 2: B2 VH 2
# VL 2: B2 VL 2
# B16: IgG1-huCD3-H1L1-LFLEDA (antibody, V domains shown)
# VH: B1 VH with L5V, K15G, K19R, Q78K, I80S, A125S
# VL: not shown
# B17: IgG1-huCD3-H4L3-LFLEDA (antibody, V domains shown)
# VH: B1 VH with L5V, Q13K, K15G, G16R, K19R, Q78K, N87S, L120M, A125S
# VL: B8 VL 1
# B18: IgG1-huCD3-H1L3-LFLEDA (antibody, V domains shown)
# VH: B1 VH with L5V, K15G, K19R, Q78K, I80S, A125S
# VL: B8 VL 1
# B19: IgG1-huCD3-H4L1-LFLEDA (antibody, V domains shown)
# VH: B1 VH with L5V, Q13K, K15G, G16R, K19R, Q78K, N87S, L120M, A125S
# VL: not shown
# B20: IgG1-huCD3-H3L3-LFLEDA (antibody, V domains shown)
# VH: B1 VH with L5V, Q13K, K15G, G16R, K19R, Q78K, N87S, A125S
# VL: B8 VL 1
# B21: IgG1-huCD3-H1L1 (antibody, V domains shown)
# VH: B1 VH with L5V, K15G, K19R, Q78K, I80S, A125S
# VL: not shown
# B22: bsIgG1-huCD3-H3L3xHER2-LFLEDA (bispecific antibody, V domains shown)
# VH 1: B1 VH with L5V, Q13K, K15G, G16R, K19R, Q78K, N87S, A125S
# VL 1: B8 VL 1
# VH 2: B2 VH 2
# VL 2: B2 VL 2
# B23: bsIgG1-huCD3-H3L1xHER2-LFLEDA (bispecific antibody, V domains shown)
# VH 1: B1 VH with L5V, Q13K, K15G, G16R, K19R, Q78K, N87S, A125S
# VL 1: not shown
# VH 2: B2 VH 2
# VL 2: B2 VL 2
# B24: bsIgG1-huCD3-H4L1xHER2-LFLEDA (bispecific antibody, V domains shown)
# VH 1: B1 VH with L5V, Q13K, K15G, G16R, K19R, Q78K, N87S, L120M, A125S
# VL 1: not shown
# VH 2: B2 VH 2
# VL 2: B2 VL 2
# B25: bsIgG1-huCD3-H1L3xHER2-LFLEDA (bispecific antibody, V domains shown)
# VH 1: B1 VH with L5V, K15G, K19R, Q78K, I80S, A125S
# VL 1: B8 VL 1
# VH 2: B2 VH 2
# VL 2: B2 VL 2
# B26: bsIgG1-huCD3-H1L1xHER2-LFLEDA (bispecific antibody, V domains shown)
# VH 1: B1 VH with L5V, K15G, K19R, Q78K, I80S, A125S
# VL 1: not shown
# VH 2: B2 VH 2
# VL 2: B2 VL 2
# Target: T1, HSC-F
# Assay: FACS binding; Fig 2B
row,EC50 [µg/mL],Binder
1,0.47,B1
2,4.46,B2
3,3.54,B3
4,0.3,B4

# Target: T2, human CD3 (on the human T-cell line Jurkat or on human T-cells) (human, UniProt P09693 23-182; P20963 22-164)
# T2 sequence (chain, as listed by the source, chain 1 of 4): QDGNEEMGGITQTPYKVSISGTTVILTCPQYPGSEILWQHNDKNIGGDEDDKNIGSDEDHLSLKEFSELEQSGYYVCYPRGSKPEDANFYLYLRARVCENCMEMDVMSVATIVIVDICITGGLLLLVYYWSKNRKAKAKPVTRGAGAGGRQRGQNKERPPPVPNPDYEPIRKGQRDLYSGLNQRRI
# T2 sequence (chain, as listed by the source, chain 2 of 4): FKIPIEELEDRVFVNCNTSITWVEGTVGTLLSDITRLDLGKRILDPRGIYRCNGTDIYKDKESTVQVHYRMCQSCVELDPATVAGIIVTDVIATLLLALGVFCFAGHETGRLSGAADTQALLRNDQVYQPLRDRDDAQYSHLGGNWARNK
# T2 sequence (P09693 23-182, chain 3 of 4): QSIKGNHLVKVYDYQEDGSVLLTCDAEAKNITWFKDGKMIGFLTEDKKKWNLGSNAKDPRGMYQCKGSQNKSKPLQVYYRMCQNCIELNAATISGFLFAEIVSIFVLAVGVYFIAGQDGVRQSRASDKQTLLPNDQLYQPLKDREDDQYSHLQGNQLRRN
# T2 sequence (P20963 22-164, chain 4 of 4): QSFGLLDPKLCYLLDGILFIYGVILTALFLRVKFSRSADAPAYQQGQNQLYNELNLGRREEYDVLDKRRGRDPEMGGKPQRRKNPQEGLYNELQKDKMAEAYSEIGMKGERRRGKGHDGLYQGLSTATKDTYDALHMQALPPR
# Assay: FACS binding
row,EC50 [µg/mL],Binder
1,0.64,B5
2,0.18,B6
3,0.62,B7
4,0.58,B8
5,0.59,B9
6,0.74,B10

# Target: T2, human CD3 (on the human T-cell line …)
# Assay: FACS binding; Fig 1A
row,EC50 [µg/mL],Binder
1,0.02,B11
2,0.05,B12
3,0.08,B6
4,0.06,B13
5,0.08,B14
6,0.04,B4

# Target: T2, human CD3 (on the human T-cell line …)
# Assay: FACS binding; Fig 1B
row,EC50 [µg/mL],Binder
1,0.68,B15
2,0.28,B5
3,0.07,B6
4,0.04,B4

# Target: T1, HSC-F
# Assay: FACS binding
row,EC50 [µg/mL],Binder
1,0.03,B16
2,0.02,B17
3,0.03,B18
4,0.06,B1
5,0.03,B19
6,0.04,B4
7,0.03,B20

# Target: T2, human CD3 (on the human T-cell line …)
# Assay: FACS binding
# Remark: another data set of the same source
row,EC50 [µg/mL],Binder
1,0.08,B17
2,0.27,B6
3,0.11,B18
4,0.06,B19
5,0.1,B4
6,0.08,B20

# Target: T1, HSC-F
# Assay: FACS binding; Fig 2A
row,EC50 [µg/mL],Binder
1,0.11,B11
2,0.26,B12
3,0.28,B13
4,0.3,B1
5,0.31,B14
6,0.19,B4
7,0.37,B21

# Target: T1, HSC-F
# Assay: FACS binding
# Remark: another data set of the same source
row,EC50 [µg/mL],Binder
1,0.26,B22
2,0.28,B23
3,0.36,B24
4,0.06,B1
5,0.25,B25
6,0.32,B26
